Several values for one entry are separate records, joined by “and”; a condition that tells them apart may be missing. Identical values can stand only once. Blank lines part the entries; values can stand above or below the substance they belong to.
Key:
human CTLA-4 (human) [1] = biological target: human CTLA-4 (human) (UniProt P16410); test: flow cytometry, CHO cells stably expressing CTLA4
CD96 = biological target: T1, CD96 (UniProt P40200); test: flow cytometry on cells expressing the target, 20 nM Fc fusion
T1 sequence (looked up): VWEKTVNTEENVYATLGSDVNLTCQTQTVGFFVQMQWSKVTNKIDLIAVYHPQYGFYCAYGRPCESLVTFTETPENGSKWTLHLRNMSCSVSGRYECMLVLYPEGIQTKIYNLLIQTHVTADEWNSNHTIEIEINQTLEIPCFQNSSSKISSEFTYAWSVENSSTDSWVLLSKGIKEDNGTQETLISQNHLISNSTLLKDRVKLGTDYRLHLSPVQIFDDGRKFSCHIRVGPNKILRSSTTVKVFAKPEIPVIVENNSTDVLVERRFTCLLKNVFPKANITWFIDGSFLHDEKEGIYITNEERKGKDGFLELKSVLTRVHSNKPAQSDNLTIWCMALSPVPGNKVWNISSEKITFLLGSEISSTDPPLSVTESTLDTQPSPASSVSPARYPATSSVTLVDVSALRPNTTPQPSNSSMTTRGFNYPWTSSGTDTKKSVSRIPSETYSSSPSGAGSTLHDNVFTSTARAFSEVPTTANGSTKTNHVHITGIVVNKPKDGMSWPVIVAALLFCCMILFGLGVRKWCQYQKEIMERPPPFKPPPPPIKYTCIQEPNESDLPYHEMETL

CD226 = CD226 (UniProt Q15762); test: flow cytometry, protein at 25 nM on cells expressing CD226
CD112R = CD112R (UniProt Q6DKI7); test: flow cytometry, protein at 25 nM on cells expressing CD112R
CD28 (human) = CD28 (human) (UniProt P10747); test: flow cytometry, Jurkat/IL2 reporter cells (endogenous CD28), 33.3 nM, PE anti-human Fc
[2] = biological target: PD-L1 expressed on CHO/OKT3/PD-L1 artificial antigen presenting cells (human) (UniProt Q9NZQ7); test: cell-based or functional assay
[3] = biological target: PD-1 expressed on cells (Homo sapiens (Human)) (UniProt Q15116); test: flow cytometry; 20 nM protein on cells expressing PD-1
[4] = biological target: CD80 expressed on cells (human) (UniProt P33681); test: flow cytometry; 20 nM protein on cells expressing CD80
[5] = biological target: human PD-L1, full-length, expressed on transfected HEK293 (Expi293F) cells (human) (UniProt Q9NZQ7); test: flow cytometry, Fc control on HEK293 cells transfected with full-length human PD-L1
[6] = biological target: human CD28, full-length, expressed on transfected HEK293 (Expi293F) cells (human) (UniProt P10747); test: flow cytometry, Fc control on HEK293 cells transfected with full-length human CD28
[7] = biological target: human CTLA4, full-length, expressed on transfected HEK293 (Expi293F) cells (human) (UniProt P16410); test: flow cytometry, Fc control on HEK293 cells transfected with full-length human CTLA4
[8] = biological target: PD-1 (Homo sapiens (Human)) (UniProt Q15116); test: flow cytometry on Jurkat/PD-1 cells, 50 nM
PD-L1 (human) [9] = biological target: PD-L1 (human) (UniProt Q9NZQ7); test: flow cytometry, CHO cells stably expressing huPD-L1, 33.3 nM, PE anti-human Fc
PD-L1 (human) [10] = biological target: PD-L1 (human) (UniProt Q9NZQ7); test: flow cytometry, CHO cells stably expressing PD-L1
PD-L1 (human) [11] = biological target: PD-L1 (human) (UniProt Q9NZQ7); test: cell-based or functional assay
TIGIT [12] = biological target: T2, TIGIT (UniProt Q495A1); test: flow cytometry on cells expressing TIGIT, Fc fusion at 100 nM
T2 sequence (looked up): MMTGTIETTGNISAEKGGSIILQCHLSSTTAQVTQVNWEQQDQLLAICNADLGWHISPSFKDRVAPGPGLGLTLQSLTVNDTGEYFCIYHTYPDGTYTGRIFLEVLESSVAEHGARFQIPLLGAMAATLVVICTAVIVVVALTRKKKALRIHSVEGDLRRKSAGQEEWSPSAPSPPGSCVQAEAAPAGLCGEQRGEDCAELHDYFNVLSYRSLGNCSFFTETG

TIGIT [13] = biological target: T2, TIGIT; test: flow cytometry, MFI ratio to wildtype CD155 ECD-Fc, TIGIT cells
human CTLA-4 (human) [14] = biological target: human CTLA-4 (human) (UniProt P16410); test: flow cytometry, CHO cells stably expressing huCTLA4, 33.3 nM, PE anti-human Fc
[15] = biological target: human CD28, full length, expressed on transfected HEK293 cells (human) (UniProt P10747); test: flow cytometry, HEK293 cells transfected with human CD28
[16] = biological target: human CD28, endogenous on Jurkat/IL2 reporter cells (human) (UniProt P10747); test: flow cytometry, Jurkat/IL2 reporter cells (endogenous CD28), PE anti-human Fc
[17] = biological target: CD28, endogenously expressed on Jurkat/IL2 reporter cells (human) (UniProt P10747); test: flow cytometry on Jurkat/IL2 reporter cells (endogenous CD28); PE anti-human Fc
[18] = biological target: human CTLA4 (full-length, expressed on CHO cells) (human) (UniProt P16410); test: flow cytometry, CHO cells expressing huCTLA4, PE anti-human Fc
Sequence of human CTLA4 (full-length, expressed on CHO cells) (human) (P16410 36-223): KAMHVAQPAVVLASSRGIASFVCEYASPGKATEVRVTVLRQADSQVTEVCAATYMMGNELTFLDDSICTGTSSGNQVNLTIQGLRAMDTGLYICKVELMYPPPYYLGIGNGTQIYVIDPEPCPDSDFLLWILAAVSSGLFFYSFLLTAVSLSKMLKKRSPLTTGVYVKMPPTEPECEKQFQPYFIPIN

Sequence of PD-L1 (human) (Q9NZQ7 19-290): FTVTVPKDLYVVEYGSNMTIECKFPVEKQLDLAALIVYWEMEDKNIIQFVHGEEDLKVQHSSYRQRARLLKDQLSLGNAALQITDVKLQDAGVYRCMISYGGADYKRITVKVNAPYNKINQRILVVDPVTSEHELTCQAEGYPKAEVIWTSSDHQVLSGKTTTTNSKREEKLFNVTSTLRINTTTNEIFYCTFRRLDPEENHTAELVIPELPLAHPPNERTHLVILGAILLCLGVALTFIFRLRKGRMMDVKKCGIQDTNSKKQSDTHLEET
Sequence of PD-1 (Homo sapiens (Human)) (Q15116 21-288): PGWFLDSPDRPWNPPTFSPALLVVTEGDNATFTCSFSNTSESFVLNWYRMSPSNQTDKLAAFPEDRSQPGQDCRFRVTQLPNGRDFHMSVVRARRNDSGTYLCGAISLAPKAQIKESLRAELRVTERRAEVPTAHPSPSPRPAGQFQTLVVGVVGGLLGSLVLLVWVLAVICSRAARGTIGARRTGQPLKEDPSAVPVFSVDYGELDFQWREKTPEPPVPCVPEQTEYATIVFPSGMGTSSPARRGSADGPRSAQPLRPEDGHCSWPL
Sequence of human CTLA-4 (human) (P16410 36-223): as the sequence (P16410 36-223) above
Sequence of PD-1 expressed on cells (Homo sapiens (Human)) (Q15116 21-288): as the sequence (Q15116 21-288) above
Sequence of human CTLA4, full-length, expressed on transfected HEK293 (Expi293F) cells (human) (P16410 36-223): as the sequence (P16410 36-223) above
Sequence of human PD-L1, full-length, expressed on transfected HEK293 (Expi293F) cells (human) (Q9NZQ7 19-290): as the sequence (Q9NZQ7 19-290) above
Sequence of PD-L1 expressed on CHO/OKT3/PD-L1 artificial antigen presenting cells (human) (Q9NZQ7 19-290): as above
Sequence of CD226 (Q15762 19-336): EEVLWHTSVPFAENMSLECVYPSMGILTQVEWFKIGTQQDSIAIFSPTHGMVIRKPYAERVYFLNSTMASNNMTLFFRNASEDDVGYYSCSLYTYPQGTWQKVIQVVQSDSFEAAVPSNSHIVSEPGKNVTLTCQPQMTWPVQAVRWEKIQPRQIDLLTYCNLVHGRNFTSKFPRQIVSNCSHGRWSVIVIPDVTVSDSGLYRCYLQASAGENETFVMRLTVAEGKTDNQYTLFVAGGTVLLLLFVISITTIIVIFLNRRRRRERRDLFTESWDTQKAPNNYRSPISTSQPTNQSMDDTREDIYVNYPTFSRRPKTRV
Sequence of CD112R (Q6DKI7 41-326 limits assumed, form in doubt): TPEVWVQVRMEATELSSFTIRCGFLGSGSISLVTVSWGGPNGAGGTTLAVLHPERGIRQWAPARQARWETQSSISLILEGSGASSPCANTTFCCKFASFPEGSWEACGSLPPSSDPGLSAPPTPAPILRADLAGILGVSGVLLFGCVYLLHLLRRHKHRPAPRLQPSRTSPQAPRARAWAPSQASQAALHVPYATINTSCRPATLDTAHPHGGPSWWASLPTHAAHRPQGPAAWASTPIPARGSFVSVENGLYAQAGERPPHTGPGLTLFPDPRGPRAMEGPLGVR

Substance: CD80 IgV-Fc T13R/Q33R/E35D/M38I/M47L/V68M (from UniProt P33681 35-141) (Fc fusion)
MFI at 33.3 nM (human CTLA-4 (human) [1]): 193 MFI

Substance: CD112-IgV (from UniProt Q92692 32-158) (Fc fusion)
MFI at 25 nM (CD226): 824 MFI
MFI at 25 nM (CD112R): 17800 MFI

Substance: E35D/D46E/M47L/V68M/L85Q/F92L CD80 IgV-Fc (from UniProt P33681 35-141) (Fc fusion)
MFI at 33.3 nM (CD28 (human)): 15 MFI

Substance: WT CD80 ECD-Fc (from UniProt P33681 35-242) (Fc fusion)
MFI at 33.3 nM (PD-L1 (human) [9]): 68 MFI
MFI at 33.3 nM (PD-L1 (human) [10]): 52 MFI
Jurkat/IL2 + CHO/OKT3/PD-L1 reporter assay, RLU at CD80 Conc 5.0 nM (PD-L1 (human) [11]): 521 RLU

Substance: Wildtype (CD155 entry without mutations among the variant rows of Table 20B) (from UniProt P15151 21-142) (Fc fusion)
MFI at 100 nM (TIGIT [12]): 1960 MFI and 2180 MFI
Fold ↑ to WT ECD (TIGIT [13]): 0 fold

Substance: variant CD80 IgV-Fc A26E/E35D/M47L/L85Q (from UniProt P33681 35-141) (Fc fusion)
MFI at 66.6 nM [15]: 2270 MFI

Substance: variant CD80 IgV-Fc E35D/D46E/M47V/N63D/L85Q (from UniProt P33681 35-141) (Fc fusion)
MFI at 33.3 nM [16]: 1330 MFI

Substance: variant CD80 IgV-Fc E35D/K37E/M47V/N48D/L85Q/D90N (from UniProt P33681 35-141) (Fc fusion)
MFI at 33.3 nM [16]: 1590 MFI

Substance: variant CD80 IgV-Fc E35D/M47L/A71G/L85Q (from UniProt P33681 35-141) (Fc fusion)
MFI at 33.3 nM [16]: 1440 MFI

The next lines start with the values.

MFI at 20 nM (CD96): 1210 MFI and 1180 MFI
Substance: CD112 A112V IgV-Fc (from UniProt Q92692 32-158) (Fc fusion)

Relative Luciferase Units (RLU), Jurkat/IL2 + CHO/OKT3/PD-L1 reporter assay, CD80 Conc 5.0 nM [2]: 97 RLU
Substance: Fc1.1 Control (from UniProt P0DOX5 218-448)

MFI at 20 nM [3]: 59 MFI
MFI at 20 nM [4]: 132 MFI
Substance: Fc Control

MFI at 22.2 nM [5]: 4740 MFI
MFI at 66.6 nM [6]: 2590 MFI
MFI at 66.6 nM [7]: 5960 MFI
Substance: Fc only

Fold increase over wildtype PD-L1 IgV-Fc [8]: 0.1 fold
MFI at 50 nM [8]: 306
Substance: PD-L1 A33D/S75P IgV-Fc (first entry) (from UniProt Q9NZQ7 19-132) (Fc fusion)

MFI at 33.3 nM (CD28 (human)): 15 MFI
MFI at 33.3 nM (PD-L1 (human) [9]): 45 MFI
MFI at 33.3 nM (human CTLA-4 (human) [14]): 125 MFI
Substance: deltaE10-A98 CD80 IgV-Fc (Fc fusion)

MFI at 33.3 nM [17]: 1290 MFI
Substance: variant CD80 IgV-Fc E35D/M42V/M47V/E52D/L85Q (from UniProt P33681 35-141) (Fc fusion)

MFI at 33.3 nM [18]: 8660 MFI
Substance: variant CD80 IgV-Fc E35D/M47I/K54R/L85E (from UniProt P33681 35-141) (Fc fusion)

MFI at 33.3 nM [17]: 1550 MFI
Substance: variant CD80 IgV-Fc E35D/Y53H/A71G/D90G/L97R (from UniProt P33681 35-141) (Fc fusion)

Source: patent US20210130436A1
